Measurements: article PMC10877577 (ACS Chemical Biology, 2024)
Positions count from the first letter of the chain named. In names and notes the source's numbering stands. Entries after “also recorded” stand apart in the source; their conditions may differ. Bridges are numbered along the chain shown (N, C = ends). Where no end group is shown, it is not given here.

Key:
sdAbs = settings: read-out: affinity of sdAb for hapten; cited from earlier work
[1] = test system: HEK-293T transduced with the aMinoC1 transmembrane receptor; assay: Flow cytometry of peptide-muIgG2a Fc binding to cells with aMinoC1 transmembrane receptor; assay type: cell-based, human; settings: GWARA, HWAQA, PWAYS, QWAMM; increasing minocycline; caffeine 100 μM
Method: Flow cytometry was performed using the MACSQuant Analyzer 10 or MACSQuant X (Miltenyi Biotec). All flow cytometry data was analyzed using FlowJo v.7.6.2 software (Tree Star Inc., Ashland, OR). Cell staining was carried out by incubation with PBS containing the recommended concentration of antibodies at RT for 30 min. PBS washes were carried out between antibody staining. Cell viability was determined using viability dye SYTOX Blue Dead Cell Stain (ThermoFisher) prior to flow cytometric analysis. Cells were first gated for singlet population identified by FSC-H and FSC-A. Next, live cells were identified using a viability dye, followed by gating for target cell populations. The antibodies used in the study are as follows: CD3 PECy7 (Biolegend, 317334), Human CD34 APC-conjugated antibody (R&D system, FAB7227A), Human CD34 Alexa Fluor 488-conjugated antibody (R&D system, FAB7227G), Streptavidin PE (Biolegend, 405204), APC antihuman EGFR antibody (Biolegend, 352905), Alexa Fluor 488 antihuman EGFR antibody (Biolegend, 352907), PE anti-HA.11 Epitope Tag antibody (Biolegend, 901517), Anti-M13-HRP (Sino Biologics, 1197 mm05T-H), Anti-Myc-HRP (Genscript, A00863), and SYTOX Blue Dead Cell Stain (ThermoFisher, S10274).

[2] = test system: MinoCAR-transduced PBMC against SupT1-EGFR+ target cells; assay type: cell-based; settings: 0.1, 1 and 10 μM, 24 h, 1:2 E/T
Method: Transduced CAR T cells were determined by staining for the transduction marker RQR8 and normalized by the addition of nontransduced T cells. Effector cells were cocultured with 5.0 × 10^4 number of target cells (SupT1-NT, SupT1-EGFR+, SKOV3-mKate) to achieve the desired effector cell to target ratio. […] Cocultures were incubated for 24–72 h at 37 °C and 5% CO2. After incubation, plates were centrifuged at 400g for 5 min, and the supernatant containing secreted cytokines was collected for cytokine analysis. Cells were stained with anti-hCD34-APC and anti-CD3-PeCy7 to differentiate effector T cells and target cells. Cells were washed with 300 μL o PBS and stained with SYTOX Blue Dead Cell Stain dye. The percentage of target cell survival was measured relative to the number of live target cells cocultured with nonspecific CAR T cells or nontransduced PBMCs.

aMinoC1 sdAb = assay: SPR of peptide-Fc or small-molecule analytes against aMinoC1; assay type: binding, alpaca; settings: molecules closely related to minocycline
Method: (§1) Binding assays were carried out using 1x HBS-EP+ running buffer. Various concentrations (2.5 μM with 2-fold serial dilutions) of the analyte were injected for 150 s at 30 μL/min with 150 s dissociation time. Glycine-HCl (pH 2.0) was used as the regeneration buffer for the sensor chips. For the rechallenge experiment, aMinoC1 was immobilized on a CM5 sensor chip and CX7C peptide-Fc conjugates were loaded at 100 nM and injected as the analyte for 150 s at 30 μL/min. Following the injection of peptide-Fc, a small molecule at 1 μM was injected for 300 s at 30 μL/min, using dual injection function on a Biacore 8k instrument, to dissociate the peptide-Fc from the aMinoC1-peptide complex. The system was then washed using HBS-P^+ buffer for 300 s at 30 μL/min prior to rechallenge with peptide-Fc. The cycle was repeated three times following a final dissociation step of 300 s. For the alanine scanning experiments, the anti-minocycline antibody (sdAb-muIgG2a-Fc fusion) was captured on a Protein A series S sensor chip, to a density of 3000 RU. […] Glycine-HCl (pH 1.5) was used as the regeneration buffer. In each case, flow cell 1 was used for reference subtraction, and a “0 concentration” sensogram of buffer alone was used as a double reference subtraction to factor for drift. Data analysis was carried out using Biacore T200 Evaluation Software, version 3.0, and Biacore Insight evaluation software. […]

aMinoC22 sdAb = assay: SPR of related small molecules against aMinoC22; assay type: binding, alpaca; settings: molecules closely related to minocycline
Method: as §1

aMinoC1-peptide complex = assay: SPR rechallenge: small-molecule-driven dissociation of peptide-Fc from immobilized aMinoC1; assay type: binding; settings: peptide-Fc 100 nM, small molecule 1 μM
Method: Binding assays were carried out using 1x HBS-EP+ running buffer. Various concentrations (2.5 μM with 2-fold serial dilutions) of the analyte were injected for 150 s at 30 μL/min with 150 s dissociation time. Glycine-HCl (pH 2.0) was used as the regeneration buffer for the sensor chips. For the rechallenge experiment, aMinoC1 was immobilized on a CM5 sensor chip and CX7C peptide-Fc conjugates were loaded at 100 nM and injected as the analyte for 150 s at 30 μL/min. Following the injection of peptide-Fc, a small molecule at 1 μM was injected for 300 s at 30 μL/min, using dual injection function on a Biacore 8k instrument, to dissociate the peptide-Fc from the aMinoC1-peptide complex. The system was then washed using HBS-P^+ buffer for 300 s at 30 μL/min prior to rechallenge with peptide-Fc. The cycle was repeated three times following a final dissociation step of 300 s. For the alanine scanning experiments, the anti-minocycline antibody (sdAb-muIgG2a-Fc fusion) was captured on a Protein A series S sensor chip, to a density of 3000 RU. […] Glycine-HCl (pH 1.5) was used as the regeneration buffer. In each case, flow cell 1 was used for reference subtraction, and a “0 concentration” sensogram of buffer alone was used as a double reference subtraction to factor for drift. Data analysis was carried out using Biacore T200 Evaluation Software, version 3.0, and Biacore Insight evaluation software. The 1:1 Langmuir binding model was used to calculate the association (ka), dissociation (kd) rate constants, and equilibrium dissociation constant (KD).

TetRB = settings: cited from earlier work
[3] = target: anti-minocycline single-domain antibody clone 1 (aMinoC1 sdAb) (alpaca)
[4] = target: anti-minocycline single-domain antibody clone 1 (aMinoC1 sdAb) (alpaca); remark: listed apart in the source
[5] = target: anti-minocycline single-domain antibody clone 1 (aMinoC1 sdAb) (alpaca); remark: listed apart in the source
[6] = target: anti-minocycline single-domain antibody clone 1 (aMinoC1 sdAb) (alpaca); assay: SPR; Biacore T200; aMino sdAbs immobilized on a CM5 chip (4300-4600 RU); 1x HBS-EP+; analyte from 2.5 uM in 2-fold serial dilutions, 150 s at 30 uL/min, 150 s dissociation; 1:1 Langmuir model
minocycline = assay: SPR
[7] = target: T1, GWARA CX7C peptide-muIgG2a-Fc fusion; assay: ELISA; settings: chain shown with the change
T1 chain: ACPGWARAFC

[8] = target: T2, PWAYS CX7C peptide-muIgG2a-Fc fusion (disulfide 1-9 (inferred); also: fused to muIgG2a Fc, end not given here); assay: SPR
T2 chain: CPPWAYSFC

[9] = target: T3, HWAQA CX7C peptide-muIgG2a-Fc fusion (disulfide 1-9 (inferred); also: fused to muIgG2a Fc, end not given here); assay: SPR
T3 chain: CPHWAQAFC

[10] = target: T4, GWARA CX7C peptide-muIgG2a-Fc fusion (disulfide 2-10 (inferred); also: fused to muIgG2a Fc, end not given here); assay: SPR
T4 chain: ACPGWARAFC

[11] = target: T5, QWAMM CX7C peptide-muIgG2a-Fc fusion (disulfide 1-9 (inferred); also: fused to muIgG2a Fc, end not given here); assay: SPR
T5 chain: CPQWAMMFC

[12] = SPR of anti-minocycline sdAb-Fc clones binding to minocycline
Method: as §1

[13] = Isothermal titration calorimetry of aMinoC1 binding to minocycline; settings: sdAb-Fc 2 μM titrated with minocycline 50 μM, 25 °C; read-out: KD (ITC)
Method: ITC measurements were performed using the PEAQ-ITC nonautomated (MicroCal) at 25 °C. The antibody sample was dialyzed overnight using 5 L of PBS (20 mM Na3PO4, 150 mM NaCl, pH 7.4). […] The concentration of the anti-minocycline sdAb (as murine IgG2a Fc fusion) was determined using extinction coefficients ε280 nm = 31,065 M^–1 cm^–1.

[14] = nanoDSF thermal unfolding of aMinoC1; assay type: physicochemical
Method: A dye-free protocol was used whereby the intrinsic fluorescence of tryptophan and tyrosine was measured by scanning samples at 330 and 350 nm to determine protein unfolding. […] Melting scan was carried out by setting the run at 1 °C/min temperature increments from 20 to 95 °C. Tm was calculated as first derivative of 350/330 nm ratio.

## CC(=O)OC[C@]12[C@H](O)C(=O)C(C)=C[C@H]1O[C@@H]1[C@H](O)C[C@@]2(C)[C@]12CO2 [15-acetyl-deoxynivalenol]
sdAbs
  Kd: 5 to 215 µM

## Cn1c(=O)c2c(ncn2C)n(C)c1=O [caffeine]
[1]
  peptide-muIgG2a Fc binding to membrane-bound aMinoC1 in presence of small molecule: no peptide-binding inhibition; also recorded: did not result in a decrease in peptide binding
[2]
  effect of other small molecules on MinoCAR cytotoxicity: not affected

## C[C@H]1c2cccc(O)c2C(=O)C2=C(O)[C@]3(O)C(=O)C(C(N)=O)=C(O)[C@@H](N(C)C)[C@@H]3[C@@H](O)[C@@H]21 [doxycycline]
aMinoC1 sdAb
  binding to aMinoC1 (SPR): Neither sdAb showed an interaction; also recorded: lack of binding; also recorded: without cross-reactivity
aMinoC22 sdAb
  binding to aMinoC22 (SPR): Neither sdAb showed an interaction; also recorded: lack of binding
aMinoC1-peptide complex
  GWARA-Fc dissociation from immobilized aMinoC1 on small-molecule injection: No enhanced dissociation
  peptide-Fc (HWAQA, PWAYS and QWAMM) dissociation from immobilised aMinoC1 on small-molecule injection: No enhanced dissociation
[2]
  effect of other small molecules on MinoCAR cytotoxicity: not affected

## CN(Cc1cnc2nc(N)nc(N)c2n1)c1ccc(C(=O)N[C@@H](CCC(=O)O)C(=O)O)cc1 [methotrexate]
[2]
  effect of other small molecules on MinoCAR cytotoxicity: not affected
sdAbs
  Kd: 0.029 to 0.515 µM

## Nc1c(Cl)c(Cl)nc(C(=O)O)c1Cl [picloram]
sdAbs
  Kd: 3 to 354 µM

## CN(C)[C@@H]1C(O)=C(C(N)=O)C(=O)[C@@]2(O)C(O)=C3C(=O)c4c(O)cccc4[C@@](C)(O)[C@H]3C[C@@H]12 [tetracycline]
aMinoC1 sdAb
  binding to aMinoC1 (SPR): Neither sdAb showed an interaction; also recorded: lack of binding; also recorded: without cross-reactivity
aMinoC22 sdAb
  binding to aMinoC22 (SPR): Neither sdAb showed an interaction; also recorded: lack of binding
aMinoC1-peptide complex
  GWARA-Fc dissociation from immobilized aMinoC1 on small-molecule injection: No enhanced dissociation
  peptide-Fc (HWAQA, PWAYS and QWAMM) dissociation from immobilised aMinoC1 on small-molecule injection: No enhanced dissociation
[2]
  effect of other small molecules on MinoCAR cytotoxicity: not affected
TetRB
  Kd: 0.0028 µM

## O=C(Nc1ccc(Cl)cc1)Nc1ccc(Cl)c(Cl)c1 [triclocarbon]
sdAbs
  Kd: 0.00098 to 0.00137 µM

## GWARA CX7C peptide-muIgG2a-Fc fusion
[3]
  IFN-y release by MinoUniCAR PBMCs (aMinoC1-CD8stk-CD28TM-CD28-41BBz) with the soluble aEGFR sdAb-GWARA adaptor, 0 uM against 10 uM minocycline: 1570 pg/mL
[4]
  IFN-γ secretion by PBMCs transduced with the aMinoC1/GWARA-MyD88/CD40 module against the SG3S-peptide negative control, no minocycline; tuned down about 2-fold by increasing minocycline: 520 pg/mL
[5]
  IL12 secreted by T cells that co-express GWARA-flexi-IL12 and aMinoC1-KDEL without minocycline (retention); released up to 150 pg/mL on day 2 and 2.2 ug/mL on day 7 with minocycline up to 2.5 uM: 450 pg/mL
[6]
  Kd: 0.111 µM

## HWAQA CX7C peptide-muIgG2a-Fc fusion
[6]
  Kd: 0.328 µM

## PWAYS CX7C peptide-muIgG2a-Fc fusion
[6]
  Kd: 0.283 µM

## QWAMM CX7C peptide-muIgG2a-Fc fusion
[6]
  Kd: 0.209 µM

## auxin
sdAbs
  Kd: 0.5 to 20 µM

B1: anti-minocycline single-domain antibody clone 1 (aMinoC1 sdAb) R64A (protein)
chain: QVQLESGGGLVQPGSSLRLSCAASGRTFSSYNIGWFRQAPKEREFVAAISWSGAATYYADSVKGRFTISRDNAKNTVYLQMNSLKPEDTAVYSCAAGRGWGTEAILDYWGQGTQVSSA
minocycline
  ratio to parent: 1.15
[7]
  ratio to parent: 0.18

B2: anti-minocycline single-domain antibody clone 1 (aMinoC1 sdAb) R108A (protein)
chain: B1 chain with A55R, R98A
minocycline
  ratio to parent: 0.88
[7]
  ratio to parent: 0.17

B3: anti-minocycline single-domain antibody clone 1 (aMinoC1 sdAb) A63S (protein)
chain: B1 chain with A54S, A55R
minocycline
  ratio to parent: 0.77
[7]
  ratio to parent: 0.12

B4: anti-minocycline single-domain antibody clone 1 (aMinoC1 sdAb) W58A (protein)
chain: B1 chain with W51A, A55R
minocycline
  ratio to parent: 1.06
[7]
  ratio to parent: 0.25

B5: anti-minocycline single-domain antibody clone 1 (aMinoC1 sdAb) G40A (protein)
chain: B1 chain with G34A, A55R
minocycline
  ratio to parent: 1.7
[7]
  ratio to parent: 0.23

B6: anti-minocycline single-domain antibody clone 1 (aMinoC1 sdAb) (VHH)
VHH: B1 chain with A55R
[8]
  koff: 0.0056 s⁻¹
[9]
  koff: 0.0058 s⁻¹
[10]
  koff: 0.017 s⁻¹
[11]
  koff: 0.0043 s⁻¹

B7: anti-minocycline single-domain antibody clone 1 (aMinoC1 sdAb) S35A (protein)
chain: B1 chain with S29A, A55R
minocycline
  ratio to parent: 0.97
[7]
  ratio to parent: 0.15

B8: aMinoC1: anti-minocycline single-domain antibody clone 1 from immunized alpaca, tested as sdAb-Fc (antibody, V domains shown)
VH: B1 chain with A55R
[12]
  ka: 1.13e+06 M⁻¹ s⁻¹
  kd: 0.036 s⁻¹
[13]
  Kd: 0.0249 µM
[14]; aMinoC1 alone, PBS pH 7.4
  first unfolding midpoint (Tm50): 79.5 °C
[14]; minocycline 1 nM to 2.5 mM
  improvement of Tm50 with minocycline: over 10 °C
[14]; minocycline ranging from 1 nM to 2.5 mM
  Tm50 on coincubation with minocycline: 89.6 °C

B9: anti-minocycline single-domain antibody clone 1 (aMinoC1 sdAb) R28A (protein)
chain: B1 chain with R26A, A55R
minocycline
  ratio to parent: 1.28
[7]
  ratio to parent: 0.17
